# “And” between values parts separate entries of the source, which are not always exact repeats. Identical values can stand only once.
# How the values were obtained:
# [1] = Pharmacokinetics: serum BNP levels after intra-renal (IR) versus intravenous (IV) BNP administration in the canine model; type: in vivo; details: for difference between serum BNP levels with IR versus IV infusion at comparable time points: higher with IV
# Protocol: (§1) IR versus IV administration of human recombinant BNP (Natrecor® agent, Scios, Inc., Johnson & Johnson) was compared in the canine model (two animals). IR infusion was achieved using the FlowMedica Benephit™ Infusion System (FlowMedica, Inc.). IV and IR administration was performed in each animal sequentially, and the administration periods were separated by five days to allow for washout and re-acclimation of the animals. IV administration was conducted on the first day in both animals. Other than the route of BNP administration, all other parameters were identical between the IV and IR administration days in both dogs.
# (§2) Canine #1 received a 2 mcg/kg/min bolus of BNP followed immediately by a 0.15 mcg/kg/min BNP infusion for 90 minutes, followed by a 2-hour washout period. Then vasoconstriction was induced via phenylepherine until mean arterial pressure (MAP) was increased by approximately 30% (approximately 1 hour), and then BNP was again administered at 0.15 mcg/kg/min for 90 minutes.
# Canine #2 received a 2 mcg/kg/min BNP bolus followed immediately by a 4-hour continuous infusion of BNP at 0.15 mcg/kg/min.
# (§3) Key endpoints included serum levels of BNP (pharmacokinetics, both animals) following IR and IV BNP administration, and blood pressure response in response IR and IV BNP administration (Canine #1 only).
# canine model = test: Blood pressure (mean arterial pressure) response to IR and IV BNP during phenylepherine-induced vasoconstriction; type: in vivo; details: Canine #1, constricted vascular state induced by phenylepherine
# Protocol: as §1, §2, §3
substance,measurement,setting,value
nesiritide [BNP],difference between serum BNP levels with IR versus IV infusion at comparable time points,"[1]; Canine #1, 2 mcg/kg/min bolus then 0.15 mcg/kg/min infusion",75% and 66%
same,difference between serum BNP levels with IR versus IV infusion at comparable time points,"[1]; Canine #2, 2 mcg/kg/min bolus then 4-hour infusion at 0.15 mcg/kg/min",61% and 69%
same,lower systemic levels with IR than with IV administration of the same dose,"[1]; both canines, same dose",61-75%
same,"average reduction of steady-state plasma BNP levels, IR versus systemic (IV) administration","[1]; two dogs, given dose IR versus IV",63%
same,maximum reduction in mean arterial pressure (MAP),canine model; IR BNP 0.15 mcg/kg/min,15%
same,maximum reduction in mean arterial pressure (MAP),canine model; IV BNP 0.15 mcg/kg/min,50%
